T1: soluble p97 (amino acids 20-710 of human p97 precursor), 6x his tag (human, UniProt P08582 20-710)
T1 construct: range 20-710; also called p97 melanotransferrin; recombinant p97; not shown: 6x his tag from vector pSecTag2
T1 sequence: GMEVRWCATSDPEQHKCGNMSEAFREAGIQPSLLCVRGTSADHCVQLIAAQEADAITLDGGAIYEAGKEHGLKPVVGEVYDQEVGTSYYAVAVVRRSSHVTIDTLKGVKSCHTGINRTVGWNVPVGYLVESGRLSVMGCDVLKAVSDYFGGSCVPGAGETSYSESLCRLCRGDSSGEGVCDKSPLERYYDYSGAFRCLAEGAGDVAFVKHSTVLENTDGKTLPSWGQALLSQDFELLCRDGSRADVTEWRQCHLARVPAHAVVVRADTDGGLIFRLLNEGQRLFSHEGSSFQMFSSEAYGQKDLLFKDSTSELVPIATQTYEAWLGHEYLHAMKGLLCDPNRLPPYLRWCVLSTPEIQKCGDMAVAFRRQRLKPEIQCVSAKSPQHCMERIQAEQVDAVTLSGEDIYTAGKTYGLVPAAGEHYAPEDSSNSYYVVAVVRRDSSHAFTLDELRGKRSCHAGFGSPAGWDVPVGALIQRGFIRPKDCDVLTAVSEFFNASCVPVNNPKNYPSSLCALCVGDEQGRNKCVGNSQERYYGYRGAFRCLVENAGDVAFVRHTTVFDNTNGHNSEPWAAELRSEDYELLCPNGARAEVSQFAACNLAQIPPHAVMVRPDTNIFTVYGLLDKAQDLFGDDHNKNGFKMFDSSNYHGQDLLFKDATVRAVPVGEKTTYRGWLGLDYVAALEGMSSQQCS

T2: p97 antigen on human melanoma H3677 cells (human, UniProt P08582 20-709)
T2 sequence: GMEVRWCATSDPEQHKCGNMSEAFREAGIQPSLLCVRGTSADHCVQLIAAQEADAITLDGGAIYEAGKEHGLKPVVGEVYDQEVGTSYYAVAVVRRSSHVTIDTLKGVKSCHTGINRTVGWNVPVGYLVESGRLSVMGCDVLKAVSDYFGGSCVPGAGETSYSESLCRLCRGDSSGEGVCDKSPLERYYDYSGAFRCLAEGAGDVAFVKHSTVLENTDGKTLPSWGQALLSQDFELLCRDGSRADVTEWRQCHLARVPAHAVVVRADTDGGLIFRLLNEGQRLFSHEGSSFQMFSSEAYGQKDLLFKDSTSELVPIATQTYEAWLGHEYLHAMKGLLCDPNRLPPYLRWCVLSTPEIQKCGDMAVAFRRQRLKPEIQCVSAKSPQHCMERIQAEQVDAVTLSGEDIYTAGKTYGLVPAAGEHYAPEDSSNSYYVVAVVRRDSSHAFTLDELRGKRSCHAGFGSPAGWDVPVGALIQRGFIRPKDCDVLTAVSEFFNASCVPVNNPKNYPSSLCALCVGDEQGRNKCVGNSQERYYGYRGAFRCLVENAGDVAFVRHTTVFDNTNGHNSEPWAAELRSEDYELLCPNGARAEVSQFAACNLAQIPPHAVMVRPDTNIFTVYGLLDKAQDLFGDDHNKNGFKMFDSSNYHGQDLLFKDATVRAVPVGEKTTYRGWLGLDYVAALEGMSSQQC


Assays:
[1] = molecular target: T1, soluble p97 (amino acids 20-710 of …); assay: SEC binding assay with purified p97 (discussion of the example)
[2] = molecular target: T2, p97 antigen on human melanoma H3677 …; assay: cell-based or functional assay
[3] = molecular target: T1, soluble p97 (amino acids 20-710 of …); assay: SPR, Biacore 2000, 25 C; p97 immobilised on CM5 chip, scFv fusion injected; 1:1 model

| Binder | percent of purified protein bound to antigen [1] | IC50 of prodrug C-Mel on H3677 melanoma cells pre-treated with 10 nM fusion protein, unbound material washed off; cell viability by alamarBlue [2] | Kd [3] | koff [3] | kon [3] |
| --- | --- | --- | --- | --- | --- |
| L49-sFv-bL triple mutant FP990 (K H39 Q, F H82B S, N H91 Y) (scFv) scFv: MEVQLQESGPSLVKPSQTLSLTCSVTGDSITSGYWNWIRQFPGNKLEYMGYISDSGITYYNPSLKSRISITRDTSKNQYYLQLNSVTAEDTATYYCARRTLATYYAMDYWGQGTSVTVSSGSTSGSGKPGSGEGSTKGDFVMTQTPLSLPVSLGDQASISCRASQSLVHSNGNTYLHWYLQKPGQSPKLLIYRVSNRFSGVPDRFSGSGSGTDFTLKISRVEAEDLGVYFCSQSTHVPPTFGGGTKLEIKRTPVSEKQLAEVVANTITPLMKAQSVPGMAVAVIYQGKPHYYTFGKADIAANKPVTPQTLFELGSISKTFTGVLGGDAIARGEISLDDAVTRYWPQLTGKQWQGIRMLDLATYTAGGLPLQVPDEVTDNASLLRFYQNWQPQWKPGTTRLYANASIGLFGALAVKPSGMPYEQAMTTRVLKPLKLDHTWINVPKAEEAHYAWGYRDGKAVRVSPGMLDAQAYGVKTNVQDMANWVMANMAPENVADASLKQGIALAQSRYWRIGSMYQGLGWEMLNWPVEANTVVETSFGNVALAPLPVAEVNPPAPPVKASWVHKTGSTGGFGSYVAFIPEKQIGIVMLANTSYPNPARVEAAYHILEALQ | 100% | 5000 nM | 1.75 nM | 0.000782 s⁻¹ | 448000 M⁻¹ s⁻¹ |
| reverse orientation triple mutant FP999 (K H39 Q, F H82B S, N H91 Y, bL-L49-sFv orientation) (scFv, also called bL-L49-scFv) TPVSEKQLAEVVANTITPLMKAQSVPGMAVAVIYQGKPHYYTFGKADIAANKPVTPQTLFELGSISKTFTGVLGGDAIARGEISLDDAVTRYWPQLTGKQWQGIRMLDLATYTAGGLPLQVPDEVTDNASLLRFYQNWQPQWKPGTTRLYANASIGLFGALAVKPSGMPYEQAMTTRVLKPLKLDHTWINVPKAEEAHYAWGYRDGKAVRVSPGMLDAQAYGVKTNVQDMANWVMANMAPENVADASLKQGIALAQSRYWRIGSMYQGLGWEMLNWPVEANTVVETSFGNVALAPLPVAEVNPPAPPVKASWVHKTGSTGGFGSYVAFIPEKQIGIVMLANTSYPNPARVEAAYHILEALQMHGTKLMEVQLQESGPSLVKPSQTLSLTCSVTGDSITSGYWNWIRQFPGNKLEYMGYISDSGITYYNPSLKSRISITRDTSKNQYYLQLNSVTAEDTATYYCARRTLATYYAMDYWGQGTSVTVSSGSTSGSGKPGSGEGSTKGDFVMTQTPLSLPVSLGDQASISCRASQSLVHSNGNTYLHWYLQKPGQSPKLLIYRVSNRFSGVPDRFSGSGSGTDFTLKISRVEAEDLGVYFCSQSTHVPPTFGGGTKLEIKR | – | 5000 nM | 1.71 nM | 0.000575 s⁻¹ | 337000 M⁻¹ s⁻¹ |
